Test results as given in patent publication US10400230B2, “Protease variants and polynucleotides encoding same” (NOVOZYMES A/S, priority 2014, dated 2019).
“And” between values parts separate entries of the source, which are not always exact repeats. Equal values may be shown once.

Assay: Determination of binding constants of inhibitor (NNIC) in Model B detergent, Suc-AAPF-pNA read-out
Assay type: biochemical
Conditions: Ki of variant with the mutation relative to variant without the mutation, <1.0 beneficial
Procedure: Purified protease variants are pre-diluted to approximately 0.2 mg/ml in dilution buffer. 40 μl diluted protease is then mixed with 40 μl inhibitor solution (Z-Gly-Ala-NHCH(CH2C6H4pOH)C(OH)(SO3Na)—H, wherein Z is benzyloxycarbonyl) or 40 μl 4-FPBA solution in the well of a 96 well microtiter plate (Nunc F 96-MTP). […] After 10 min mixing of protease and inhibitor at room temperature, 30 μl of the mixture is transferred to a microtiter plate (Nunc U96 PP 0.5 ml) with 270 μl Model B detergent in the wells resulting in inhibitor concentrations of 0-30 μM and 4-FPBA concentrations of 0-6000 μM. Protease, inhibitor and detergent is mixed for 1 hour using magnetic bars for 1 hour at room temperature to reach equilibrium. Then 20 μl is transferred to a microtiter plate (Nunc F 96-MTP). 100 μl substrate solution is added and after 5 sec mixing absorbance at 405 nm is measured every 20 sec for 5 min on a SpectraMax Plus reader. Slope from linear regression of initial increase in absorbance at 405 nm is used for calculation of apparent binding constants.
It is assumed that protease and inhibitor react according to the equation: E+I ? EI
Where E is the protease, I is the inhibitor and EI is the protease-inhibitor complex. […] The concentration of enzyme-inhibitor in the detergent solution is then given by:
where Etot is the total protease concentration ([Etot]=[E]+[EI]), Itot is the total inhibitor concentration ([Itot]=[I]+[EI]), and Ki is the equilibrium binding constant for the reaction. The measured slopes V are given by:
where V0 is the slope without inhibitor added. To calculate apparent binding constant Ki least square fitting of measured slopes at various inhibitor concentrations to this equation is performed with Ki and V0 as variables.
The Ki for the parent protease and for each variant was calculated as described above
Having the Ki for each variant, it is possible to calculate the effect of a single mutation, if data are available for at least two variants that differ only by that mutation. In this case, the relative Ki for the mutation is calculated:
[formula] A lower Ki is desirable, as a satisfactory inhibition can be obtained at a lower inhibitor concentration, so beneficial mutations have a relative Ki<1.0 The following table show such relative Kimutation. Each row show: • a mutation (column 1: “Mutation”) • a protease variant (relative to SEQ ID NO: 2) that comprise the mutation from column 1 (column 2: “Variant with the mutation”) • another protease variant (relative to SEQ ID NO: 2), that differs from the one in column 2 only by not having the mutation in column 1 (column 3: “Variant without the mutation”) • Relative Kimutation for the mutation in column 1, in the context of the variant in column 3, measured in Model B detergent (column 4: “inhibitor binding in Model B”) • Relative Kimutation for the mutation in column 1, in the context of the variant in column 3, measured in Tris buffer at pH 8 (column 5: “inhibitor binding in Tris buffer pH 8”)
Ki were calculated as shown in Example 3. The Improvement Factor (IF) or Relative

Inhibitor-binding relative Kimutation, inhibitor binding in Model B	Molecule
0.24	S27K, I150N, S171N, S173P, G174R, S175P, F180Y, Q198, ET297P: TY145 protease (SEQ ID NO 3) variant with these substitutions (protein, listed as Bacillus sp.) AVPSTQTPWGIKSIYNDQSITKTTGGKGIKVAVLDTGVYTSHLDLAGSAEQCKDFTQSNPLVDGSCTDRQGHGTHVAGTVLAHGGSNGQGVYGVAPQAKLWAYKVLGDNGSGYSDDIAAAIRHVADEASRTGSKVVINMSLGSSAKDSLNASAVDYAYGKGVLIVAAAGNNGPRPNTIGYPGGLVNAVAVAALENVQENGTYRVADFSSRGNPATAGDYIIQERDIEVSAPGASVESTWYTGGYNTISGTSMATPHVAGLAAKIWSANTSLSHSQLRTELQNRAKVYDIKGGIGAGPGDDYASGFGYPRVK
0.75	S27K, K146P, S148R, A151R, S171N, S173P, G174R, S175P, F180Y, Q198E, N199K, T297P: TY145 protease (SEQ ID NO 3) variant with these substitutions (protein, listed as Bacillus sp.) AVPSTQTPWGIKSIYNDQSITKTTGGKGIKVAVLDTGVYTSHLDLAGSAEQCKDFTQSNPLVDGSCTDRQGHGTHVAGTVLAHGGSNGQGVYGVAPQAKLWAYKVLGDNGSGYSDDIAAAIRHVADEASRTGSKVVINMSLGSSAPDRLIRSAVDYAYGKGVLIVAAAGNNGPRPNTIGYPGGLVNAVAVAALENVQEKGTYRVADFSSRGNPATAGDYIIQERDIEVSAPGASVESTWYTGGYNTISGTSMATPHVAGLAAKIWSANTSLSHSQLRTELQNRAKVYDIKGGIGAGPGDDYASGFGYPRVK
0.50 and 0.49	S173P, S175P, I178F, F180Y: TY145 protease (SEQ ID NO 3) variant with these substitutions (protein, listed as Bacillus sp.) AVPSTQTPWGIKSIYNDQSITKTTGGSGIKVAVLDTGVYTSHLDLAGSAEQCKDFTQSNPLVDGSCTDRQGHGTHVAGTVLAHGGSNGQGVYGVAPQAKLWAYKVLGDNGSGYSDDIAAAIRHVADEASRTGSKVVINMSLGSSAKDSLIASAVDYAYGKGVLIVAAAGNSGPGPNTFGYPGGLVNAVAVAALENVQQNGTYRVADFSSRGNPATAGDYIIQERDIEVSAPGASVESTWYTGGYNTISGTSMATPHVAGLAAKIWSANTSLSHSQLRTELQNRAKVYDIKGGIGAGTGDDYASGFGYPRVK
0.51	S173P, S175P, I178P, F180Y: TY145 protease (SEQ ID NO 3) variant with these substitutions (protein, listed as Bacillus sp.) AVPSTQTPWGIKSIYNDQSITKTTGGSGIKVAVLDTGVYTSHLDLAGSAEQCKDFTQSNPLVDGSCTDRQGHGTHVAGTVLAHGGSNGQGVYGVAPQAKLWAYKVLGDNGSGYSDDIAAAIRHVADEASRTGSKVVINMSLGSSAKDSLIASAVDYAYGKGVLIVAAAGNSGPGPNTPGYPGGLVNAVAVAALENVQQNGTYRVADFSSRGNPATAGDYIIQERDIEVSAPGASVESTWYTGGYNTISGTSMATPHVAGLAAKIWSANTSLSHSQLRTELQNRAKVYDIKGGIGAGTGDDYASGFGYPRVK
0.53	S173P, S175P, I178Y, F180Y: TY145 protease (SEQ ID NO 3) variant with these substitutions (protein, listed as Bacillus sp.) AVPSTQTPWGIKSIYNDQSITKTTGGSGIKVAVLDTGVYTSHLDLAGSAEQCKDFTQSNPLVDGSCTDRQGHGTHVAGTVLAHGGSNGQGVYGVAPQAKLWAYKVLGDNGSGYSDDIAAAIRHVADEASRTGSKVVINMSLGSSAKDSLIASAVDYAYGKGVLIVAAAGNSGPGPNTYGYPGGLVNAVAVAALENVQQNGTYRVADFSSRGNPATAGDYIIQERDIEVSAPGASVESTWYTGGYNTISGTSMATPHVAGLAAKIWSANTSLSHSQLRTELQNRAKVYDIKGGIGAGTGDDYASGFGYPRVK
0.37	S27K, Q70N, G107N, I121V, E127Q, S173P, S175P, F180Y, L184F, Q198E, T297P: TY145 protease (SEQ ID NO 3) variant with these substitutions (protein, listed as Bacillus sp.) AVPSTQTPWGIKSIYNDQSITKTTGGKGIKVAVLDTGVYTSHLDLAGSAEQCKDFTQSNPLVDGSCTDRNGHGTHVAGTVLAHGGSNGQGVYGVAPQAKLWAYKVLNDNGSGYSDDIAAAVRHVADQASRTGSKVVINMSLGSSAKDSLIASAVDYAYGKGVLIVAAAGNSGPGPNTIGYPGGFVNAVAVAALENVQENGTYRVADFSSRGNPATAGDYIIQERDIEVSAPGASVESTWYTGGYNTISGTSMATPHVAGLAAKIWSANTSLSHSQLRTELQNRAKVYDIKGGIGAGPGDDYASGFGYPRVK
0.30	S27K, I121V, S171N, S173P, G174R, S175P, F180Y, L184F, Q198E, T297P: TY145 protease (SEQ ID NO 3) variant with these substitutions (protein, listed as Bacillus sp.) AVPSTQTPWGIKSIYNDQSITKTTGGKGIKVAVLDTGVYTSHLDLAGSAEQCKDFTQSNPLVDGSCTDRQGHGTHVAGTVLAHGGSNGQGVYGVAPQAKLWAYKVLGDNGSGYSDDIAAAVRHVADEASRTGSKVVINMSLGSSAKDSLIASAVDYAYGKGVLIVAAAGNNGPRPNTIGYPGGFVNAVAVAALENVQENGTYRVADFSSRGNPATAGDYIIQERDIEVSAPGASVESTWYTGGYNTISGTSMATPHVAGLAAKIWSANTSLSHSQLRTELQNRAKVYDIKGGIGAGPGDDYASGFGYPRVK
0.81	S173P, S175P, N176Y, F180Y: TY145 protease (SEQ ID NO 3) variant with these substitutions (protein, listed as Bacillus sp.) AVPSTQTPWGIKSIYNDQSITKTTGGSGIKVAVLDTGVYTSHLDLAGSAEQCKDFTQSNPLVDGSCTDRQGHGTHVAGTVLAHGGSNGQGVYGVAPQAKLWAYKVLGDNGSGYSDDIAAAIRHVADEASRTGSKVVINMSLGSSAKDSLIASAVDYAYGKGVLIVAAAGNSGPGPYTIGYPGGLVNAVAVAALENVQQNGTYRVADFSSRGNPATAGDYIIQERDIEVSAPGASVESTWYTGGYNTISGTSMATPHVAGLAAKIWSANTSLSHSQLRTELQNRAKVYDIKGGIGAGTGDDYASGFGYPRVK
0.18	S27K, S171N, S173P, G174R, S175P, F180Y, L184F, Q198E, T297P: TY145 protease (SEQ ID NO 3) variant with these substitutions (protein, listed as Bacillus sp.) AVPSTQTPWGIKSIYNDQSITKTTGGKGIKVAVLDTGVYTSHLDLAGSAEQCKDFTQSNPLVDGSCTDRQGHGTHVAGTVLAHGGSNGQGVYGVAPQAKLWAYKVLGDNGSGYSDDIAAAIRHVADEASRTGSKVVINMSLGSSAKDSLIASAVDYAYGKGVLIVAAAGNNGPRPNTIGYPGGFVNAVAVAALENVQENGTYRVADFSSRGNPATAGDYIIQERDIEVSAPGASVESTWYTGGYNTISGTSMATPHVAGLAAKIWSANTSLSHSQLRTELQNRAKVYDIKGGIGAGPGDDYASGFGYPRVK
0.31 and 0.27	S173P, S175P, F180Y, L184F: TY145 protease (SEQ ID NO 3) variant with these substitutions (protein, listed as Bacillus sp.) AVPSTQTPWGIKSIYNDQSITKTTGGSGIKVAVLDTGVYTSHLDLAGSAEQCKDFTQSNPLVDGSCTDRQGHGTHVAGTVLAHGGSNGQGVYGVAPQAKLWAYKVLGDNGSGYSDDIAAAIRHVADEASRTGSKVVINMSLGSSAKDSLIASAVDYAYGKGVLIVAAAGNSGPGPNTIGYPGGFVNAVAVAALENVQQNGTYRVADFSSRGNPATAGDYIIQERDIEVSAPGASVESTWYTGGYNTISGTSMATPHVAGLAAKIWSANTSLSHSQLRTELQNRAKVYDIKGGIGAGTGDDYASGFGYPRVK
